From patent publication US20140106982A1

Legend:
mAb 2H1 = experiment: VLP library affinity selection on 2H1, clones sequenced
2C7 antibody = experiment: VLP library affinity selection on 2C7, clones sequenced

Substance	copies among sequenced affinity-selected clones (mAb 2H1)	copies among sequenced affinity-selected clones (2C7 antibody)
DTQCQF (peptide)	17 copies	
ELWRGT (peptide)		2 copies
LDYEGN (peptide)		1 copy
LDYERI (peptide)		3 copies
LDYMRT (peptide)		4 copies
LDYQRV (peptide)		7 copies
PLWKGN (peptide)		1 copy
PLWRGT (peptide)		1 copy
VDYERI (peptide)		2 copies
WDATLQPA (peptide)	2 copies	
WTADLQPE (peptide)	1 copy	
